Patent US20090061444A1 (WISCONSIN ALUMNI RESEARCH FOUNDATION, published 2009)

Target: the molecule itself
Experiment: size exclusion chromatography (Superose 6), non-denaturing; self-association
Description: Size Exclusion Chromatography. Size exclusion chromatography (SEC) was performed by FPLC using a 24 ml Superose 6 (S6) column (GE Healthcare, Pittsburgh, Pa.). The chromoproteins (100 μl of a 5 mg/ml sample) were first purified through the phenyl HP step, dissolved in 30 mM Tris-HCl (pH 8.0) and 200 mM NaCl, and either loaded onto the column as Pr or immediately following saturating irradiation of the sample with red light (630 nm). Absorption spectra were recorded before and after SEC to verify that the chromoproteins remained enriched in the desired states (Pr or Pfr).
SEC has shown that most, if not all, Phys are dimeric with their binding interface(s) involving one or more regions, including the GAF domain in DrBphP, the PAS-GAF-PHY domain in Syn-Cph1, and the C-terminal HK and HK-related regions in microbial and higher plants Phys. […] Whereas the GAF domain alone as Pr behaved as a monomer of 22 kDa, consistent with its calculated molecular mass of 23.3 kDa, the GAF-PHY fragment behaved as a dimer species at 105-kDa, nearly twice the size of its calculated mass of 48.4 kDa (FIG. 23). […] The predicted molecular masses of monomeric SyB-Cph1 (GAF) and SyB-Cph1 (GAF-PHY) polypeptides are 23.3 kDa and 48.4 kDa, respectively, while the apparent molecular masses measured by SEC are 22 and 106 kDa, respectively.

B1: SyB-Cph1 (GAF) chromoprotein assembled with PCB (other)
chain: MDTETWAAAARPSRDALINRITHQIRQSLELDQILRATVEEVRAFLGTDRVKVYRFDPEGHGTVVAEARGGERLPSLLGLTFPAGDIPEEARRLFRLAQVRVIVDVEAQSRSISQPESWGLSARVPLGEPLQRPVDPCHVHYLKSMGVASSLVVPLMHHQELWGLLVSHHAEPRPYSQEELQVVQLLADQVSIAIAQAELHHHHHH
modifications: phycocyanobilin (PCB) covalently bound at Cys-138
notes: It ran as a monomer on SEC, both as Pr and after saturating red light; also called CYB GAF; BG
binding result: no binding (tested: 100 µl of a 5 mg/ml sample loaded)
